Data on one molecule can be found in publication PMC4779955.

In this data set the target is T1, Lin28A (GST-His6 fusion) (Homo sapiens, UniProt Q9H9Z2 1-209).
T1 sequence: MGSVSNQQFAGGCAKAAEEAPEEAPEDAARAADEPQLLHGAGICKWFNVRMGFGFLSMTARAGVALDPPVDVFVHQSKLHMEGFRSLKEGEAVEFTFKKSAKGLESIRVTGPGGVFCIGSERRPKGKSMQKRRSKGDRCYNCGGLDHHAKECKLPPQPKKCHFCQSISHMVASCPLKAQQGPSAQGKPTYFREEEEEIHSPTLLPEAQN
The experiment in a line: EMSA. A general note: Mobility shift assays separate free from complexed probe on a gel.

B1: Motif1 bubble duplex (dsDNA)
DNA 1: CTTCTGGCGCTGTCCATCACAAGGTGCTGAACCCAG
DNA 2: CTGGGTTCAGCACCATTTTTTGCGCCAGAAG
In the case of B1, the binding result is recorded as “binds”.
